Assay results: patent US20140223591A1

B1: HB-9094-HEK293T-IgG (antibody, V domains shown)
VH: QIQLVQSGPELKKPGETVKISCKASGYPFTNYGMNWVKQAPGKGLKWMGWINTYTGEPACADDFRGRFAISLETSARTAYLQINNLINEDTATYFCARTGGGRYNYGMDYWGQGTSVTVSS
VL: QIVLTQSPAIMSASPGEKVTITCSATSSVSYIHWFQQKPGTSPKLWIYSTSNLASGVPVRFSGSGSGTSYSLTISRMEAEDAATYYCQQRSSYPPTFGGGTKLEIKR
B2: SMI41 ascites IgG (antibody, V domains shown)
VH: QVTLKESGPGILRPSQTLDLTCSFSGFSLSTSGLSVGWIRQPSGKGLEWLAHIWWDDVKYFNPSLKSRLTISKDSSRNQVFLKITSVDTADSATYHCTRGPLGHGFDYWGQGTLVTVSA
VL: DVVMTQTPLSLPVSLGDQAFISCRSSQSLVHSDGNSYLHWYLQKPGQSPKLLIYKVSNRFSGVPDRFSGSGSGTDFTLKISRVEAEDLGLYFCSQTTHVPWTFGGGTKLEIK
B3: SMI41-HEK293T-IgG (antibody, V domains shown)
VH: QVTLKESGPGILRPSQTLDLTCSFSGFSLSTSGLSVGWIRQPSGKGLEWLAHIWWDDVKYFNPSLKSRLTISKDSSRNQVFLKITSVDTADSATYHCTRGPLGHGFDYWGQGTLVTVSA
VL: DVVMTQTPLSLPVSLGDQAFISCRSSQSLVHSDGNSYLHWYLQKPGQSPKLLIYKVSNRFSGVPDRFSGSGSGTDFTLKISRVEAEDLGLYFCSQTTHVPWTFGGGTKLEIKR

Tests used:
[1] = target: Gonadotrophin releasing hormone 1 (GnRH1) (UniProt P01148); assay: SPR, Biacore T200; antibody captured on goat anti-mouse IgG on a CM5 chip, GnRH injected in 2-fold dilutions from 1024 nM
[2] = target: Gonadotrophin releasing hormone 1 (GnRH1) (UniProt P01148); assay: SPR
[3] = target: Gonadotrophin releasing hormone 1 (GnRH1) (UniProt P01148); assay: SPR (Biacore T200): antibody captured on goat anti-mouse IgG immobilized on a CM5 chip, GnRH injected in 2-fold dilutions from 1024 nM

Row | Binder | Kd [1] [nM] | koff [1] [s⁻¹] | kon [1] [M⁻¹ s⁻¹] | Kd [2] [nM] | koff [2] [s⁻¹] | kon [2] [M⁻¹ s⁻¹] | Kd [3] [nM]
1 | B1 | 0.918 | 0.000249 | 272000 | 0.918 | 0.000249 | 272000 | 0.27
2 | B2 |  |  |  | 0.819 | 0.00467 | 8.99e+06 | 
3 | B3 | 0.592 | 0.00282 | 4.76e+06 | 0.592 | 0.00282 | 4.76e+06 | 
